Drawing on patent US6759384 (AVENTIS PHARMACEUTICALS, dated 2004), this text covers Ki for 63 molecules.

Starred links: 1 amine or outer side, 2 acyl side, 3 side chain; linkers in the order of their positions; H or OH if unused. Non-standard residues stand in square brackets, D forms with d. No end group written: not given here. *: point of attachment. (pOH)C6H4‑OCH(CH3)CO = N-terminal acyl cap: 4-hydroxyphenyl-O-CH(CH3)-C(=O)- (2-(4-hydroxyphenoxy)propionyl), CC(Oc1ccc(O)cc1)C(=O)*; (iBu)Y = N-alpha-isobutyl-tyrosine, CC(C)CN([C@@H](Cc1ccc(O[*:3])cc1)C(=O)[*:2])[*:1]; Orn(N^δ-C3H7N) = ornithine-derived dimethylamidinium (N-delta-C3H7N); Dab(N^γ-C3H7N) = Dab-derived dimethylamidinium (N-gamma-C3H7N); dTyr(Me) = COc1ccc(C[C@@H](N[*:1])C(=O)[*:2])cc1; dNMeY = CN[C@H](Cc1ccc(O)cc1)C(=O)O; Tos = Cc1ccc(S(=O)(=O)*)cc1; Tfa = O=C(C(F)(F)F)*; Sar = CNCC(=O)O Bounds are passed on as bounds.

First the molecules themselves.
B1: Tfa-y-I-R-L-P-NH2 (peptide)
peptide: Tfa-[dY]IRLP-NH2
B2: I-H-L-W-y-I-R-L-P-NH2 (peptide)
peptide: IHLW[dY]IRLP-NH2
modifications: N-terminus assumed
SMILES: CC[C@H](C)[C@H](N)C(=O)N[C@@H](Cc1c[nH]cn1)C(=O)N[C@@H](CC(C)C)C(=O)N[C@@H](Cc1c[nH]c2ccccc12)C(=O)N[C@H](Cc1ccc(O)cc1)C(=O)N[C@H](C(=O)N[C@@H](CCCNC(=N)N)C(=O)N[C@@H](CC(C)C)C(=O)N1CCC[C@H]1C(N)=O)[C@@H](C)CC
B3: (2-Me-nBu)Y-I-R-L-P-NH2 (peptide)
peptide: XIRLP
modifications: N-(2-Me-nBu) on Y1; C-term NH2
B4: Y-I-R-L-P-NH2 (peptide)
peptide: YIRLP-NH2
B5: Y-I-R-E-F-S-D-Y-NH2 (peptide)
peptide: YIREFSDY-NH2
B6: Y-I-R-L-M-E-M-T-NH2 (peptide)
peptide: YIRLMEMT-NH2
B7: Y-I-R-Y-R-N-P-I-NH2 (peptide)
peptide: YIRYRNPI-NH2
B8: Y-I-R-L-A-A-F-T-NH2 (peptide)
peptide: YIRLAAFT-NH2
B9: I-H-L-W-Y-I-R-L-P-NH2 (peptide)
peptide: IHLWYIRLP-NH2
B10: Y-I-R-I-Y-E-R-E-NH2 (peptide)
peptide: YIRIYERE-NH2
B11: Y-I-R-L-NH2 (peptide)
peptide: YIRL-NH2
B12: S-Y-I-R-L-P-NH2 (peptide)
peptide: SYIRLP-NH2
B13: w-L-R-L-A-NH2 (peptide)
peptide: [dW]LRLA-NH2
modifications: N-terminus assumed
SMILES: CC(C)C[C@H](NC(=O)[C@H](N)Cc1c[nH]c2ccccc12)C(=O)N[C@@H](CCCNC(=N)N)C(=O)N[C@@H](CC(C)C)C(=O)N[C@@H](C)C(N)=O
B14: Tfa-(iBu)Y-I-Dab(N^γ-C3H7N)-L-P-NH2 (peptide)
peptide: Tfa-[(iBu)Y]I[Dab(N^γ-C3H7N)]LP-NH2
B15: Y(3,5-I)-I-R-L-P-NH2 (peptide)
peptide: XIRLP
modifications: Y1=Y(3,5-I); C-term NH2
B16: Ac-(3,3-DiMe-nBu)Y(SO3H)-I-R-L-P-NH2 (peptide)
peptide: XIRLP
modifications: N-term Ac; N-(3,3-DiMe-nBu) on Y1; Y1=Y(SO3H); C-term NH2
B17: N-G-Y-I-R-L-I-H-NH2 (peptide)
peptide: NGYIRLIH-NH2
B18: W-L-R-L-A-NH2 (peptide)
peptide: WLRLA-NH2
B19: Tfa-Y-I-R-L-P-NH2 (peptide)
peptide: Tfa-YIRLP-NH2
B20: W-L-R-L-A-G-G-G-G-G-NH2 (peptide)
peptide: WLRLAGGGGG-NH2
B21: W-L-R-V-A-G-G-G-G-G-NH2 (peptide)
peptide: WLRVAGGGGG-NH2
B22: Ac-(2-Me-Bzl)Y-I-R-L-P-NH2 (peptide)
peptide: XIRLP
modifications: N-term Ac; N-(2-Me-Bzl) on Y1; C-term NH2
B23: (2-CF3-Bzl)Y-I-R-L-P-NH2 (peptide)
peptide: XIRLP
modifications: N-(2-CF3-Bzl) on Y1; C-term NH2
B24: Tos-G-I-R-V-Sar-NH2 (peptide)
peptide: Tos-GIRV[Sar]-NH2
SMILES: CC[C@H](C)[C@H](NC(=O)CNS(=O)(=O)c1ccc(C)cc1)C(=O)N[C@@H](CCCNC(=N)N)C(=O)N[C@H](C(=O)N(C)CC(N)=O)C(C)C
B25: (pOH)C6H4-OCH(CH3)CO-I-R-L-P-NH2 (peptide)
peptide: {(pOH)C6H4‑OCH(CH3)CO}-IRLP-NH2
SMILES: CC[C@H](C)[C@H](NC(=O)C(C)Oc1ccc(O)cc1)C(=O)N[C@@H](CCCNC(=N)N)C(=O)N[C@@H](CC(C)C)C(=O)N1CCC[C@H]1C(N)=O
B26: Y-I-R-L-P-G-L-L-NH2 (peptide)
peptide: YIRLPGLL-NH2
B27: Ac-(2-Me-nPentyl)Y(SO3H)-I-R-L-P-NH2 (peptide)
peptide: XIRLP
modifications: N-term Ac; N-(2-Me-nPentyl) on Y1; Y1=Y(SO3H); C-term NH2
B28: Y-I-R-L-A-A-F-NH2 (peptide)
peptide: YIRLAAF-NH2
B29: Ac-(1,2,3,6-4H-Bzl)Y-I-R-L-P-NH2 (peptide)
peptide: XIRLP
modifications: N-term Ac; N-(1,2,3,6-4H-Bzl) on Y1; C-term NH2
B30: Tfa-Y(Me)I-R-L-P-NH2 (peptide)
peptide: XIRLP
modifications: N-term Tfa; Y1=Y(Me) O-methyl tyrosine; C-term NH2
B31: Ac-(2-Me-nBu)Y(SO3H)-I-R-L-P-NH2 (peptide)
peptide: XIRLP
modifications: N-term Ac; N-(2-Me-nBu) on Y1; Y1=Y(SO3H); C-term NH2
B32: W-I-R-N-P-NH2 (peptide)
peptide: WIRNP-NH2
B33: W-I-R-T-P-NH2 (peptide)
peptide: WIRTP-NH2
B34: Ac-(2Et-nBu)Y-I-R-L-P-NH2 (peptide)
peptide: XIRLP
modifications: N-term Ac; N-(2Et-nBu) on Y1; C-term NH2
B35: Y(3,5-Br)-I-R-L-P-NH2 (peptide)
peptide: XIRLP
modifications: Y1=Y(3,5-Br); C-term NH2
B36: (2-Et-nBu)Y-I-R-L-P-NH2 (peptide)
peptide: XIRLP
modifications: N-(2-Et-nBu) on Y1; C-term NH2
B37: Ph-CH═CH-CO-I-R-L-A-NH2 (peptide)
peptide: {Ph‑CH═CH‑CO}-IRLA-NH2
B38: Ac-(2,3-DiMe-nPentyl)Y-I-R-L-P-NH2 (peptide)
peptide: XIRLP
modifications: N-term Ac; N-(2,3-DiMe-nPentyl) on Y1; C-term NH2
B39: Ac-(1,2,3,6-4H-Bzl)Y(SO3H)-I-R-L-P-NH2 (peptide)
peptide: XIRLP
modifications: N-term Ac; N-(1,2,3,6-4H-Bzl) on Y1; Y1=Y(SO3H); C-term NH2
B40: 4-MeO-C6H4-CO-I-R-L-A-NH2 (peptide)
peptide: {4‑MeO‑C6H4‑CO}-IRLA-NH2
B41: Y-I-R-L-A-A-NH2 (peptide)
peptide: YIRLAA-NH2
B42: Y-I-R-L-T-K-M-W-NH2 (peptide)
peptide: YIRLTKMW-NH2
B43: T-F-G-Y-I-R-K-A-NH2 (peptide)
peptide: TFGYIRKA-NH2
B44: (Chx-CH2)Y-I-R-L-P-NH2 (peptide)
peptide: XIRLP
modifications: N-(Chx-CH2) on Y1; C-term NH2
B45: Ac-(2-CF3-Bzl)Y-I-R-L-P-NH2 (peptide)
peptide: XIRLP
modifications: N-term Ac; N-(2-CF3-Bzl) on Y1; C-term NH2
B46: Ac-(2-Me-Bzl)Y(SO3H)-I-R-L-P-NH2 (peptide)
peptide: XIRLP
modifications: N-term Ac; N-(2-Me-Bzl) on Y1; Y1=Y(SO3H); C-term NH2
B47: y(Me)-I-R-L-P-NH2 (peptide)
peptide: [dTyr(Me)]IRLP-NH2
B48: Ac-(3,3-DiMe-nBu)Y-I-R-L-P-NH2 (peptide)
peptide: XIRLP
modifications: N-term Ac; N-(3,3-DiMe-nBu) on Y1; C-term NH2
B49: Y-I-R-V-A-Q-L-Y-NH2 (peptide)
peptide: YIRVAQLY-NH2
B50: (2-Me-nPentyl)Y-I-R-L-P-NH2 (peptide)
peptide: XIRLP
modifications: N-(2-Me-nPentyl) on Y1; C-term NH2
B51: Ph-CH2CH2CO-I-R-L-A-NH2 (peptide)
peptide: {Ph‑CH2CH2CO}-IRLA-NH2
B52: (3,3-DiMe-nBu)Y-I-R-L-P-NH2 (peptide)
peptide: XIRLP
modifications: N-(3,3-DiMe-nBu) on Y1; C-term NH2
B53: Y-L-R-F-P-NH2 (peptide)
peptide: YLRFP-NH2
B54: Y-R-Y-P-R-D-R-N-NH2 (peptide)
peptide: YRYPRDRN-NH2
B55: Ac-(2,3-DiMe-nPentyl)Y(SO3H)-I-R-L-P-NH2 (peptide)
peptide: XIRLP
modifications: N-term Ac; N-(2,3-DiMe-nPentyl) on Y1; Y1=Y(SO3H); C-term NH2
B56: Y-I-R-V-M-N-H-R-NH2 (peptide)
peptide: YIRVMNHR-NH2
B57: (Me)y-I-R-L-P-NH2 (peptide)
peptide: [dNMeY]IRLP-NH2
B58: Tfa-(iBu)Y-I-Orn(N^δ-C3H7N)-L-P-NH2 (peptide)
peptide: Tfa-[(iBu)Y]I[Orn(N^δ-C3H7N)]LP-NH2
B59: I-Q-L-G-Y-I-R-L-P-NH2 (peptide)
peptide: IQLGYIRLP-NH2
B60: W-F-R-E-M-G-G-G-G-G-NH2 (peptide)
peptide: WFREMGGGGG-NH2
B61: (2-Me-Bzl)Y-I-R-L-P-NH2 (peptide)
peptide: XIRLP
modifications: N-(2-Me-Bzl) on Y1; C-term NH2
B62: Ac-(2-CF3-Bzl)Y(SO3H)-I-R-L-P-NH2 (peptide)
peptide: XIRLP
modifications: N-term Ac; N-(2-CF3-Bzl) on Y1; Y1=Y(SO3H); C-term NH2
B63: Ph-CH2CH2CH2-CO-I-R-L-A-NH2 (peptide)
peptide: {Ph‑CH2CH2CH2‑CO}-IRLA-NH2

Sequence of human factor Xa (Enzyme Research Laboratories, Inc.) (P00742 41-179 limits assumed, chain 1 of 2): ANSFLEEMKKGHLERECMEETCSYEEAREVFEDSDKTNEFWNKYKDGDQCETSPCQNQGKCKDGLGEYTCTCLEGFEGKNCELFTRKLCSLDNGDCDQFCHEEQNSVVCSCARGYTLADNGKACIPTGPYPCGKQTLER
Sequence of human factor Xa (Enzyme Research Laboratories, Inc.) (P00742 235-488 limits assumed, chain 2 of 2): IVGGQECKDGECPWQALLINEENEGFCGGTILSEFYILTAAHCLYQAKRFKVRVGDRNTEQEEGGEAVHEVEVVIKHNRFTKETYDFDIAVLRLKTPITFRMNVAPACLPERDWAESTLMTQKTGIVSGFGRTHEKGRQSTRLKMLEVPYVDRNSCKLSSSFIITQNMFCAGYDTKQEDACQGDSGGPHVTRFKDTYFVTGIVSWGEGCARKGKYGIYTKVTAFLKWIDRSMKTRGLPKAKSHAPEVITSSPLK

The assay concerns the target human factor Xa (Enzyme Research Laboratories, Inc.) (human, UniProt P00742 41-179; P00742 235-488, limits assumed). The experiment in a line: chromogenic FXa inhibition. Summed up:
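Human FXa (0.5 nM) preincubated 10 min with inhibitor in TBS-P (pH 7.8, 200 mM NaCl, PEG-8000), then S-2765 added (140 μM). Initial hydrolysis rate read at 405 nm, 25° C.; IC50 by linear regression of relative rate vs log concentration.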
By Ki is commonly meant a dissociation constant, usually derived from enzyme kinetics or from competition with a known ligand. Low readings indicate higher affinity, high ones lower affinity. Take B1: the Ki is less than 100 µM.

As for B2, the Ki is less than 100 µM. For B3, the Ki is less than 100 µM.

B4 showed a Ki of less than 100 µM. For the molecule B5, the Ki was less than 100 µM. For B6 the value was less than 100 µM; for B7, less than 100 µM; for B8, less than 100 µM. B9 had an inhibitory constant (Ki) of less than 100 µM. With B10 the figure was less than 100 µM; with B11, less than 100 µM. For B12 the value was less than 100 µM; for B13, less than 100 µM; for B14, less than 100 µM. Molecule B15 yielded a Ki of less than 100 µM. For B16, the Ki was less than 100 µM. With B17 the figure was less than 100 µM; with B18, less than 100 µM.

In the case of B19, the Ki was less than 100 µM. B20 had a Ki of less than 100 µM. With B21 the figure was less than 100 µM.

In turn, B22 registered a Ki of less than 100 µM. Regarding B23, the Ki was less than 100 µM.

B24: the Ki is less than 100 µM.

As for B25, the Ki was less than 100 µM. For B26 the value was less than 100 µM. With B27, the Ki is less than 100 µM. Molecule B28 displayed a Ki of less than 100 µM. For B29 the value was less than 100 µM; for B30, less than 100 µM; for B31, less than 100 µM. With B32 the figure was less than 100 µM.

B33 came in with a Ki of less than 100 µM.

Molecule B34 had a Ki of less than 100 µM.

As to B35, the Ki is less than 100 µM. With B36, the inhibition constant Ki was less than 100 µM.

For B37, the Ki is less than 100 µM. As for B38, the inhibition constant Ki was less than 100 µM.

With B39, the Ki is less than 100 µM. With B40 the figure was less than 100 µM. For B41 the value was less than 100 µM. With B42 the figure was less than 100 µM; with B43, less than 100 µM; with B44, less than 100 µM. In turn, B45 displayed a Ki of less than 100 µM. For the molecule B46, the Ki was less than 100 µM.

B47 had a Ki of less than 100 µM. For B48 the value was less than 100 µM; for B49, less than 100 µM. With B50 the figure was less than 100 µM; with B51, less than 100 µM. With B52 the figure was less than 100 µM; with B53, less than 100 µM. Turning to B54, the Ki was less than 100 µM. B55 showed a Ki of less than 100 µM. For B56 the value was less than 100 µM. In turn, B57 had a Ki of less than 100 µM. Take B58: the Ki is less than 100 µM. Regarding B59, the Ki is less than 100 µM. With B60 the figure was less than 100 µM.

In the case of B61, the Ki was less than 100 µM. In turn, B62 displayed an inhibition constant (Ki) of less than 100 µM. B63: the Ki is less than 100 µM.
